According to article PMC10551642, “Functional plasticity in chromosome–microtubule coupling on the evolutionary time scale” (Life Science Alliance, 2023):

Target: the molecule itself
Assay: negative stain electron microscopy; Dam1 complex-MT reaction mix adsorbed on glow-discharged grids, washed with 25 mM HEPES pH 7.4, 500 mM NaCl, 1 mM EDTA, stained with 0.7% uranyl formate; rings of the complex around MTs

B1: S. cerevisiae Dam1 complex containing Dad2-FL (DASH^WT) (complex)
chain 1: MMASTSNDEEKLISTTDKYFIEQRNIVLQEINETMNSILNGLNGLNISLESSIAVGREFQSVSDLWKTLYDGLESLSDEAPIDEQPTLSQSKTK
chain 2: MDSIDEQIAIKRKELQSLQKITSLTDGLKIQLTELNEQIKEMGMNADSVAQLMNNWDSIINNISQASLGLLQYAEGDYEIGPWKDSKKKESEQSNETGLEAQENDKNDEDNDEDEDLVPLPETMVRIRVDGNE
chain 3: MEHNLSPLQQEVLDKYKQLSLDLKALDETIKELNYSQHRQQHSQQETVSPDEILQEMRDIEVKIGLVGTLLKGSVYSLILQRKQEQESLGSNSK
chain 4: MENPHEQVQANILSRIIGNVKRLNESVAILNQELVTINNRNKNLEIMGAICDNYHSSVQFNLEATNNKKPPL
chain 5: MSEDKAKLGTTRSATEYRLSIGSAPTSRRSSMGESSSLMKFADQEGLTSSVGEYNENTIQQLLLPKIRELSDSIITLDSNFTRLNFIHESLADLNESLGSLLYGIMSNSWCVEFSQAPHDIQDDLIAIKQLKSLEDEKNNLVMELSNMERGIKRKKDEQGENDLAKASQNKQFNQPLFPSSQVRKYRSYDNRDKRKPSKIGNNLQVENEEDYEDDTSSEASFVLNPTNIGMSKSSQGHVTKTTRLNNNTNSKLRRKSILHTIRNSIASGADLPIENDNVVNLGDLHPNNRISLGSGAARVVNGPVTKNRNSMFSGRAERKPTESRHSVAKKTEKKINTRPPFR
chain 6: MSEQSQLDDSTIDKLIPQIFNEMRSNLNNTTNKFPKSTGGGASDNISANSNSIRSFNSITTQSLLKESESLDKITAMIKNVTAALKNNLPVYVNQVHEVCKSTNSILDSWINIHSQAGYIHKLMSDQTYLKLINDRLHNENVNTNDEDGSTLHNVIALKKKEILDLRQKLENRKGEKDAAPAKPPNQGLNPRYGVQSGRRPVPSAGISNNGRVRKTHVPASKRPSGIPRVTNRWTKPTASSSRKMFR
chain 7: MDSASKEETLEKLDQEITVNLQKIDSNLSFCFHKITQDIIPHVATYSEICERIMDSTEWLGTMFQETGLVNLQANAAAPVGNAPVKSLVSNNVGIFPTSAEEASRQSQTDNGPNEADSAVHVNRDVHSMFNNDSIDDFHTANITSTGQILKLPDSSDEDTGSEAVPSREQTDLTGEGHGGADDEQDESTIQRQSRKRKISLLLQQQYGSSSSMVPSPIVPNKMRKQLAHEEHINNDGDNDDENSNNIESSPLKQGHHHPKGQADDNNEGPDEEESTKEVPKPGTIIHFSTNR
chain 8: MNANKQRQYNQLAHELRELQTNLQETTKQLDIMSKQCNENLVGQLGKVHGSWLIGSYIYYMEQMLGKTQ
chain 9: MTDALEQSVLALEGTVSVLKDSVESLKCANEPSTNLASTMLQTKRVFRLVPEYDVERSKLDLIEEVEPLVRTLGDKLRKSMGRMQRELDTLQQTYELNDLRLKKNISMDDDDALNSPDMGQEYEGRDADDVVMMASSTNEELEELKKLKEKKKQLENKLEILKQK
chain 10: MGESLDRCIDDINRAVDSMSTLYFKPPGIFHNAILQGASNKASIRKDITRLIKDCNHDEAYLLFKVNPEKQSVSRRDGKEGVFDYVIKRDTDMKRNRRLGRPGEKPIIHVPKEVYLNKDRLDLNNKRRRTATTSGGGLNGFIFDTDLIGSSVISNSSSGTFKALSAVFKDDPQIQRLLYALENGSVLMEEESNNQRRKTIFVEDFPTDLILKVMAEVTDLWPLTEFKQDYDQLYHNYEQLSSKLRFIKKEVLLQDDRLKTMSQYHPSSSHDVAKIIRKEKDEIRRLEMEIANLQE
notes: Dad1, S. cerevisiae, subunit of the Dam1 (DASH) complex; Dad2, S. cerevisiae, subunit of the Dam1 (DASH) complex; Dad2-FL; Dad3, S. cerevisiae, subunit of the Dam1 (DASH) complex; Dad4, S. cerevisiae, subunit of the Dam1 (DASH) complex; Dam1, S. cerevisiae, subunit of the Dam1 (DASH) complex; Duo1, S. cerevisiae, subunit of the Dam1 (DASH) complex; Ask1, S. cerevisiae, subunit of the Dam1 (DASH) …
Question: Does B1 bind?
Answer: binds
